Reference: patent US11505576B2, “Polypeptides based on a scaffold” (AFFIBODY AB, priority 2018, dated 2022)

How the values were obtained:
[1] = Circular dichroism spectroscopy analysis (CD spectra, variable temperature measurement, refolding); format: physicochemical
Experimental: The respective Y variant was diluted to 0.5 mg/ml in PBS. A CD spectrum at 250-195 nm was obtained at 20° C. In addition, a variable temperature measurement (VTM) was performed to determine the melting temperature (Tm). In the VTM, absorbance was measured at 221 nm while the temperature was raised from 20° C. to 90° C. with a temperature gradient of 5° C./min. A new CD spectrum was obtained at 20° C. after the heating procedure, in order to study the refolding ability of the Y variants. The CD measurements were performed on a Jasco J-810 spectropolarimeter (Jasco Scandinavia AB) using a cell with an optical path length of 1 mm.
(§1) Produced Y variants were subjected to CD and SPR analyses according to the methods described in Example 1.
(§2) The Y variants were cloned, produced and characterized according to the general methods described in Example 1. Produced Y variants with point mutations and/or N-terminal or C-terminal extensions were subjected to CD and SPR analyses as described in Example 1.
(§3) Produced Y variants were subjected to CD and SPR analyses according to the methods described in Example 1. In addition, CD spectra of selected IL-6 binding variants were also recorded at 60, 70, 80 and 90° C.
(§4) The Y variants were cloned, produced and characterized according to the general methods described in Example 1. Produced Y variants with point mutations were subjected to CD and SPR analyses as described in Example 1. In addition, CD spectra of the IL-6 binding variants were also recorded at 60, 70, 80 and 90° C.

[2] = Fraction of soluble product on expression in E. coli, estimated from SDS-PAGE; format: physicochemical; details: for Est soluble fraction: Table 9, mutation study 5
Experimental: E. coli T7E2 cells were transformed with plasmids containing the gene fragment of each respective Y variant. The resulting recombinant strains were generally cultivated in media supplemented with 50 μg/ml kanamycin at 30-37° C. in 50 ml scale using the EnPresso protocol (Enpresso GmbH). In order to induce protein expression, isopropyl-β-D-1-thiogalactopyranoside (IPTG) was added to a final concentration of 0.5 mM at an optical density at 600 nm (OD600) of approximately 10. After induction, the cultures were incubated for 16 h. The cells were harvested by centrifugation. Alternatively, the culture was performed at 37° C. in 980 ml of TSB-YE medium (tryptic soy broth 30 g/l supplemented with yeast extract 5 g/l) supplemented with 50 μg/ml kanamycin, and protein expression induced with 0.2 mM IPTG at OD600=2, followed by incubation for 5 h before harvesting of the cells by centrifugation. The total yield as well as the fraction of soluble and insoluble product of the respective Y variant was estimated based on SDS-PAGE analysis.

insulin = molecular target: T1, insulin (Homo sapiens, UniProt P01308); assay: Kinetic analysis using surface plasmon resonance (Biacore T200), immobilized insulin; format: binding
T1 construct: purchased Roche 1376497
Experimental: Kinetic constants (ka and kd) and affinities (KD) were determined for His6-tagged Y variants using a Biacore T200 instrument (GE Healthcare). Target proteins C4, IL-6 and insulin, respectively, were immobilized in separate flow cells on the carboxylated dextran layer of different CM5 chip surfaces (GE Healthcare). Immobilization was performed using amine coupling chemistry according to the manufacturer's protocol and PBS pH 7.4 supplemented with 0.1 Tween20 (PBST 0.1%) as running buffer. The ligand immobilization levels on the surfaces were 3280-8830 RU for C4, 495-1184 RU for IL-6, and 270-282 RU for insulin. One flow cell surface on each chip was activated and deactivated for use as blank during analyte injections. In the kinetic experiment, PBST 0.1% was used as running buffer at a flow rate of 30 μl/min. The analytes, i.e. Y variants, were each diluted in PBST 0.1 buffer at concentrations of 1000, 500, 100, 50 and 10 nM and injected for 5 min, followed by dissociation in running buffer for 3 min. After dissociation, the surfaces were regenerated with one injection of 30 μl 10 mM HCl. Kinetic constants were calculated from the sensorgrams using the Langmuir 1:1 model of Biacore T200 Evaluation software 2.0 (GE Healthcare).
as §1, §2, §3, §4

[3] = Table 9, mutation study 5, MGSSHHHHHHGSS-[Y#####]-A
[4] = Table 8, mutation study 4, MGSSHHHHHHGSS-[Y#####]
[5] = Table 7, MGSSHHHHHHGSS-[Y#####]-A
[6] = Table 7, Ylib002Naive.I selection, MGSSHHHHHHGSS-[Y#####]-A
[7] = Table 4, mutation study 2, MGSSHHHHHHGSS-[Y#####]
[8] = Table 3, mutation study 1, MGSSHHHHHHGSS-[Y#####]

T1 sequence (P01308 25-54 limits assumed): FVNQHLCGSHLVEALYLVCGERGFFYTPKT
T1 sequence (P01308 90-110 limits assumed): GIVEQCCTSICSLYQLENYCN

Y02709: insulin binding Y variant, Y00358 with I9L, SEQ ID NO:149 (LAEAKEAALAELDSKGVGAAKIKWIQDAKSVETVQFLKQAILAELPA; Engineered insulin binding Y variant)
Tm [1, 3]: 54 °C
Est soluble fraction ([2]; MGSSHHHHHHGSS-[Y#####]-A): 100%
Kd (insulin; [3]): 0.38 µM
ka (insulin; [3]): 27000 M⁻¹ s⁻¹
kd (insulin; [3]): 0.01 s⁻¹

Y02714: insulin binding Y variant, Y00310 with Q26E, SEQ ID NO:154 (LAEAKEAAIAELDSKGVGAYQIKFIEIAHTVEEVQLMKQAILADLPA; Engineered insulin binding Y variant)
Tm [1, 3]: 53 °C
Est soluble fraction ([2]; MGSSHHHHHHGSS-[Y#####]-A): 100%
Kd (insulin; [3]): 0.54 µM
ka (insulin; [3]): 290000 M⁻¹ s⁻¹
kd (insulin; [3]): 0.16 s⁻¹

Y02717: insulin binding Y variant, Y00310 with K15Y Q26E, SEQ ID NO:157 (LAEAKEAAIAELDSYGVGAYQIKFIEIAHTVEEVQLMKQAILADLPA; Engineered insulin binding Y variant)
Tm [1, 3]: 52 °C
Est soluble fraction ([2]; MGSSHHHHHHGSS-[Y#####]-A): 100%
Kd (insulin; [3]): 0.61 µM
ka (insulin; [3]): 33000 M⁻¹ s⁻¹
kd (insulin; [3]): 0.02 s⁻¹

Y00356: insulin binding Y variant, SEQ ID NO:140, template of mutation study 4 (LAEAKEAAIAELDSKGVGAKYIKMIQHAHYVEVVQWLKQAILAHLP; Engineered insulin binding Y variant)
Tm [1, 4]: 57 °C
Estimated soluble fraction [2, 4]: 43%

Y00345: insulin binding Y variant from Ylib002Naive.I, SEQ ID NO:138 (LAEAKEAAIAELDSKGVGAYQIKFIQVAKTVEAVQAIKQAILADLPA; Engineered insulin binding Y variant)
Tm [1, 5]: 53 °C
Estimated soluble fraction [2, 6]: 80%
Kd (insulin; [5]): 0.061 µM
ka (insulin; [5]): 290000 M⁻¹ s⁻¹
kd (insulin; [5]): 0.017 s⁻¹

Y02676: insulin binding Y variant, Y00356 with Q26E, SEQ ID NO:147 (LAEAKEAAIAELDSKGVGAKYIKMIEHAHYVEVVQWLKQAILAHLP; Engineered insulin binding Y variant)
Tm [1, 4]: 56 °C
Estimated soluble fraction [2, 4]: 55%

Y02674: insulin binding Y variant, Y00356 with K15Y, SEQ ID NO:146 (LAEAKEAAIAELDSYGVGAKYIKMIQHAHYVEVVQWLKQAILAHLP; Engineered insulin binding Y variant)
Tm [1, 4]: 55 °C
Estimated soluble fraction [2, 4]: 40%

Y02687: C4 binding Y variant, Y00792 with Q26E, SEQ ID NO:42 (LAEAKEAAIAELDSKGVGADLIKKIEQASSVEGVQFWKQEILAQLPA; Engineered C4 binding Y variant)
Tm [1, 3]: 57 °C
Est soluble fraction ([2]; MGSSHHHHHHGSS-[Y#####]-A): 100%

Y02692: C4 binding Y variant, Y02309 with K15Y Q26E, SEQ ID NO:47 (LAEAKEAAIAELDSYGVGADLIKKIEKAESVEGVQFWKQEILATLPA; Engineered C4 binding Y variant)
Tm [1, 3]: 57 °C
Est soluble fraction ([2]; MGSSHHHHHHGSS-[Y#####]-A): 100%

Y02683: insulin binding Y variant, Y00356 with I9L, SEQ ID NO:148 (LAEAKEAALAELDSKGVGAKYIKMIQHAHYVEVVQWLKQAILAHLP; Engineered insulin binding Y variant)
Estimated soluble fraction [2, 4]: 92%

Y02691: C4 binding Y variant, Y00792 with K15Y Q26E, SEQ ID NO:46 (LAEAKEAAIAELDSYGVGADLIKKIEQASSVEGVQFWKQEILAQLPA; Engineered C4 binding Y variant)
Tm [1, 3]: 58 °C
Est soluble fraction ([2]; MGSSHHHHHHGSS-[Y#####]-A): 100%

Y00293: insulin binding Y variant, Y00270 with E35Q + E39Q, SEQ ID NO:125 (LAEAKEAAIAELDSKGVGAYQIKFIELAKSVEHVQLLKQAILADLP; Engineered insulin binding Y variant)
Tm [1, 7]: 56 °C
Kd (insulin; [7]): 0.49 µM

Y02689: C4 binding Y variant, Y02330 with K15Y, SEQ ID NO:44 (LAEAKEAAIAELDSYGVGAELIKKIQHAESVEGVQFWKQEILAYLPA; Engineered C4 binding Y variant)
Tm [1, 3]: 53 °C
Est soluble fraction ([2]; MGSSHHHHHHGSS-[Y#####]-A): 100%

Y02688: C4 binding Y variant, Y02330 with I9L, SEQ ID NO:43 (LAEAKEAALAELDSKGVGAELIKKIQHAESVEGVQFWKQEILAYLPA; Engineered C4 binding Y variant)
Tm [1, 3]: 50 °C
Est soluble fraction ([2]; MGSSHHHHHHGSS-[Y#####]-A): 100%

Y02693: C4 binding Y variant, Y02330 with K15Y Q26E, SEQ ID NO:48 (LAEAKEAAIAELDSYGVGAELIKKIEHAESVEGVQFWKQEILAYLPA; Engineered C4 binding Y variant)
Tm [1, 3]: 52 °C
Est soluble fraction ([2]; MGSSHHHHHHGSS-[Y#####]-A): 100%

Y02686: C4 binding Y variant, Y00792 with K15Y, SEQ ID NO:41 (LAEAKEAAIAELDSYGVGADLIKKIQQASSVEGVQFWKQEILAQLPA; Engineered C4 binding Y variant)
Tm [1, 3]: 59 °C
Est soluble fraction ([2]; MGSSHHHHHHGSS-[Y#####]-A): 100%

Y02685: C4 binding Y variant, Y00792 with I9L, SEQ ID NO:40 (LAEAKEAALAELDSKGVGADLIKKIQQASSVEGVQFWKQEILAQLPA; Engineered C4 binding Y variant)
Tm [1, 3]: 53 °C
Est soluble fraction ([2]; MGSSHHHHHHGSS-[Y#####]-A): 100%

Y00265: insulin binding Y variant, Y00032 with V17I, SEQ ID NO:112 (LAEAKEAAIAELDSKGIGAYQKSFIELAKSVEHVELLKEAILADLP; Engineered insulin binding Y variant)
Tm [1, 8]: 47 °C
Kd (insulin; [8]): 0.12 µM

Y00295: insulin binding Y variant, Y00270 with E35Q + E39Q + A43K, SEQ ID NO:127 (LAEAKEAAIAELDSKGVGAYQIKFIELAKSVEHVQLLKQAILKDLP; Engineered insulin binding Y variant)
Tm [1, 7]: 52 °C
Kd (insulin; [7]): 0.58 µM

Y02690: C4 binding Y variant, Y02330 with Q26E, SEQ ID NO:45 (LAEAKEAAIAELDSKGVGAELIKKIEHAESVEGVQFWKQEILAYLPA; Engineered C4 binding Y variant)
Tm [1, 3]: 53 °C
Est soluble fraction ([2]; MGSSHHHHHHGSS-[Y#####]-A): 100%

Y00270: insulin binding Y variant, Y00032 with K22I + S23K, SEQ ID NO:117 (LAEAKEAAIAELDSKGVGAYQIKFIELAKSVEHVELLKEAILADLP; Engineered insulin binding Y variant)
Tm [1, 8]: 52 °C
Tm [1, 7]: 52 °C
Kd (insulin; [8]): 0.077 µM

Y00292: insulin binding Y variant, Y00032 with S23K + E35Q + E39Q, SEQ ID NO:124 (LAEAKEAAIAELDSKGVGAYQKKFIELAKSVEHVQLLKQAILADLP; Engineered insulin binding Y variant)
Tm [1, 7]: 57 °C
Kd (insulin; [7]): 0.45 µM

Y00266: insulin binding Y variant, Y00032 with G18S, SEQ ID NO:113 (LAEAKEAAIAELDSKGVSAYQKSFIELAKSVEHVELLKEAILADLP; Engineered insulin binding Y variant)
Tm [1, 8]: 50 °C
Kd (insulin; [8]): 0.056 µM

Y02310: C4 binding Y variant from Ylib002Naive.I, SEQ ID NO:36 (LAEAKEAAIAELDSKGVGADLIKKIQYADTVEGVQFWKQEILAWLPA; Engineered C4 binding Y variant)
Tm [1, 5]: 56 °C
Estimated soluble fraction [2, 6]: 100%
